According to the supplement of paper PMC9170038:

How the values were obtained:
MS2 coat protein [1] = test: apparent KD of MS2 coat protein, switch OFF state (with FMN for OFF switches, without FMN for ON switches); designed switch direction (-1 OFF switch, 1 ON switch): 1; higher = weaker reporter binding; conditions: FMN input: 0 or 200 uM; Eterna round: R93 (includes R88 designs)
How it was run: (§1)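 Each design's apparent KD comes from the median of binding-curve fits to its normalised clusters. Those clusters carried RNA switches transcribed on-chip from Illumina sequencing clusters. SNAP-549-labelled MS2 coat protein was titrated onto them in twofold steps (0.7 or 1.5 nM to 3 µM; per step 0.8–1.5 h down to 10–20 min). Conditions were 100 mM Tris-HCl pH 7.5, 80 mM KCl, 4 mM MgCl2, without or with constant ligand.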

MS2 coat protein [2] = test: apparent KD of MS2 coat protein, switch ON state; designed switch direction (-1 OFF switch, 1 ON switch): 1; higher = weaker reporter binding; conditions: FMN input: 0 or 200 uM; Eterna round: R93 (includes R88 designs)
How it was run: as §1

Sequence | apparent KD of MS2 coat protein (MS2 coat protein [1]) | apparent KD of MS2 coat protein (MS2 coat protein [2])
GAAAAACAUGAGGAUCACCCAUGUAGAAAUAUGGGAGGAUAUACGAACUCGAAAGUCAAAGUAGAAGGCCUAAAAG [Garnet 30] | 130 nM | 47 nM
ACAAACAAAAGAGAGGAUAUCCAAAAGAAAACAUGAGGAUCACCCAUGUGAAAGAAAAUAAAAUGGGAGAAGGCUCAGAACAACA [Topaz 28] | 46.2 nM | 29.2 nM
UAAUAAUAAACCAAGGAUAUGGAGUUUCCAACAUGAGGAUCACCCAUGUUUAGCAUGAAAUCGAACCAGAAGGUGGAGCCAAAUA [JR_SS002_Sub1004] | 42.5 nM | 10.8 nM
AACAAUCUAUCUGAGGAUAUCAUAUAAAAGACAUGAGGAUCACCCAUGUAGCAGGAAACUGCAUAUGAGAAGGCAGAUAGAUUGA [SS2: 1121] | 10.8 nM | 7.5 nM
AUAAAACAUGAGGAUCACCCAUGUCAACAAAGUCGAGGAUAUGGGCAAAUAAAAUAAGAACCAGAAGGCGAAUAAU [Teenbexe] | 593 nM | 32.2 nM
AAAACACAUGAGGAUCACCCAUGUGCCUAAUUCGCAGGAUAUUUCUCGAUUAAAUGAUAGGAAGAAGGGUGAUAAA [Nob's Hobby 36 - Jieux - Same State 1] | 40.9 nM | 186 nM
AGAAAACAUGAGGAUCACCCAUGUGAUAACAUGGGAGGAUAUACGAGGACGAGAGUCAAGGUAGAAGGCCUAAAGA [Garnet 72] | 114 nM | 111 nM
GAAAAACAUGAGGAUCACCCAUGUGAAAAUAUGGGAGGAUAUACUAAGACGAAAGUCGAGGUAGAAGGCCUAAAAG [Same State 1.4h (Mat - Mod of Eli - )] | 131 nM | 24.7 nM
AGUCAACAUGAGGAUCACCCAUGUCUGAGAGCAUGAGGAUAUCUAGAUGGGCAGCAUGAUAGAGAAGGCAUGCGCC [Biongear] | 116 nM | 173 nM
GAAAAACAUGAGGAUCACCCAUGUGUAAAUAUGGAAGGAUAUACAAAGACGGAAGUCAAAGUAGAAGGUCUAAAAG [Mat - Same State 1 - Eli mod - D18] | 30.3 nM | 24.5 nM
AUAUGAGCUAAUGAGGAUAUCCAUAAUAAGACAUGAGGAUCACCCAUGUAAACAAAACAAUAAUGGGAGAAGGCAUUAGCUCAAU [SS 2 M49] | 58.8 nM | 45.7 nM
AAUCCAACUAGUCAGGAUAUCAGGCGUAAGACAUGAGGAUCACCCAUGUCCUAAGAACAAGUAACUGAGAAGGGACAGGGCGACC [JR_SS002_Sub411] | 62 nM | 57.6 nM
AAAAAACAUGAGGAUCACCCAUGUGAAAAUAUGGAAGGAUAUACCGAAAAAAAAAAAAAGGUAGAAGGUCUAAAAA [SS! 1 MT 4] | 32.3 nM | 23 nM
AAAAAACAUGAGGAUCACCCAUGUAAAAAAAACACAGGAUAUCCCUUUAAAAAAAAAAAAGGAGAAGGGUGAAAAA [Nob's Hobby 4 - Jieux - Same State 1] | 23.4 nM | 20.4 nM
GAAAAACAUGAGGAUCACCCAUGUGUAAACACGGGAGGAUAUACAAAGACGUAAGUCAAAGUAGAAGGCCUAAAAG [Garnet 39] | 96.5 nM | 26.7 nM
GAAAAACAUGAGGAUCACCCAUGUAGAAAUAUGGGAGGAUAUACAAAGACGGAAGUCAAAGUAGAAGGCCUAAAAG [Mat - Same State 1 - Eli mod - D7] | 71.2 nM | 27.9 nM
AACAAACAUGAGGAUCACCCAUGUAGAAACAUGGGAGGAUAUACGAAGACGAAAGUCAAAGUAGAAGGCCUAAAAA [Garnet 91] | 60.9 nM | 69.1 nM
AAAAGACAUGAGGAUCACCCAUGUAAAAACGUAGGAGGAUAUGUAUGGAAACCAGACUGUACAGAAGGCCUCUGUC [SS1 - 72] | 21.1 nM | 22.2 nM
GCAGGGCUACACUAGGAUAUGGGUGUCUAAACAUGAGGAUCACCCAUGUGAUGGCAAAACAAAGCUCAGAAGGAGUCGUAGCCCA [Bebirare] | 24.3 nM | 14 nM
AAAGACAUGGUGCAGGAUAUAUUAAUAGUCACAUGAGGAUCACCCAUGUUCAUUUAUAUGAACGAGUAGAAGGGCGAUGAAAAAA [SameState2 Malc#7] | 38.8 nM | 38.4 nM
AAAAAACAUGAGGAUCACCCAUGUGAGAACAUGGGAGGAUAUACAAGGACGAGAGUCAAAGUAGAAGGCCUAAAAA [Garnet 65] | 29.9 nM | 155 nM
AAAAAACAUGAGGAUCACCCAUGUCAAAAGACAUGAGGAUAUGUACAGACUUCGGUCUGUACAGAAGGCAUGUAAA [SS1 - 1015] | 273 nM | 24.6 nM
